The numbers were not newly measured in patent US20150177237, which cites them from elsewhere.

pKd: −log10 of the molar value.

In this data set the target is thrombin (UniProt P00734+P00734). The following applies: n positions 6-20 are abasic (x); CITED known Kd of thrombin for its aptamer; nanopore event ratios at 10-1000 nM thrombin closely match theory from this Kd; 1 M KCl, 10 mM Tris pH 7.5.

In the case of “AAAAANNNNNNNNNNNNNNNAAAAAAAAAAGGTTGGTGTGGTTGG [5A15x10A_TBA]”, the pKd is 7.30.
